Laboratory results from patent US20200385438A1 (Stanford University, published 2020).
Substitutions are numbered along the chain they refer to.

T1: biotinylated recombinant BH3-tagged mIL-2 (mouse, UniProt P04351 21-169, biotinylated with BirA enzyme (on the tag))
T1 construct: Secreted by Hi5 insect cells and immobilized on an SA sensor chip for SPR; also called biotinylated mouse IL-2; biotinylated IL-2; not shown: BH3 tag
T1 sequence (looked up): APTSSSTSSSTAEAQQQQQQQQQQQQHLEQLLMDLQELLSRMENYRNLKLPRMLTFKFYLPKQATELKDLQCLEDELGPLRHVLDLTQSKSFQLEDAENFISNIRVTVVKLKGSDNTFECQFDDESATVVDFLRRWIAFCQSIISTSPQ

B1: WT (receptor)
CD25 (IL-2Rα) chain: ELCLYDPPEVPNATFKALSYKNGTILNCECKRGFRRLKELVYMRCLGNSWSSNCQCTSNSHDKSRKQVTAQLEHQKEQQTTTDMQKPTQSMHQENLTGHCREPPPWKHEDSKRIYHFVEGQSVHYECIPGYKALQRGPAISICKMKCGKTGWTQPQLTCVDEREHHRFLASEESQGSRNSSPESETSCPITTTDFPQPTETTAMTETFVLTME
notes: also called WT mCD25; wild-type mouse CD25
B2: B4 (receptor)
CD25 (IL-2Rα) chain: B1 CD25 (IL-2Rα) chain with N27E, E29R, V41W, Y42I, M43V, N59T, I114E, H116T
notes: also called B4 mCD25
B3: WT (receptor)
CD25 (IL-2Rα) chain: ELCDDDPPEIPHATFKAMAYKEGTMLNCECKRGFRRIKSGSLYMLCTGNSSHSSWDNQCQCTSSATRNTTKQVTPQPEEQKERKTTEMQSPMQPVDQASLPGHCREPPPWENEATERIYHFVVGQMVYYQCVQGYRALHRGPAESVCKMTHGKTRWTQPQLICTGEMETSQFPGEEKPQASPEGRPESETSCLVTTTDFQIQTEMAATMETSIFTTE
notes: also called WT hCD25; wild-type human CD25
B4: F5 (receptor)
CD25 (IL-2Rα) chain: B3 CD25 (IL-2Rα) chain with M25L, N27V, L42A, I118N, H120M, K153G
notes: also called F5 hCD25
B5: B5 (receptor)
CD25 (IL-2Rα) chain: B3 CD25 (IL-2Rα) chain with M25I, N27V, E29D, L42A, I118R, H120W, K153Q
notes: also called B5 hCD25
B6: E8 (receptor)
CD25 (IL-2Rα) chain: B3 CD25 (IL-2Rα) chain with L2Q, M25V, N27Y, L42A, I118R, H120W
notes: also called E8 hCD25

Target: T1, biotinylated recombinant BH3-tagged …
Experiment: SPR (Biacore T100), biotinylated mIL-2 immobilised on an SA chip, soluble CD25 flowed over
Description: (§1) FIG. 4A-4B—Sequences and affinities of high affinity CD25 variants. DNA encoding high affinity variants was extracted after clone screens by yeast plasmid minipreps. Sequences for hCD25 (FIG. 4A) and mCD25 (FIG. 4B) clones are aligned with wild-type (WT) CD25. Residues are the same as WT except as noted, and the EAV sequence is not aligned to WT mCD25 due to differences between species. Consensus mutations for hCD25 are highlighted in blue, and deletions are marked by dashes. Affinity measurements for each clone were determined by surface plasmon resonance.
(§2) Surface plasmon resonance (FIG. 4). Sequences of high-affinity CD25 identified from the clone screens were determined by yeast miniprep (Zymo Research), and cloned into pAcBN vectors for expression in Hi5 cells. Soluble high-affinity CD25 proteins were purified by FPLC. Affinity was measured by surface plasmon resonance (Biacore T100), with biotinylated mouse or human IL-2 immobilized on a SA sensor chip (GE Healthcare). CD25 variants were flowed over the chip and the chip was regenerated between runs.

Kd	Binder
6900 pM	B1
460 pM	B2

Target: T2, biotinylated recombinant BH3-tagged hIL-2 (human, UniProt P60568 21-153, biotinylated with BirA enzyme (on the tag))
T2 construct: Secreted by Hi5 insect cells and immobilized on an SA sensor chip for SPR; also called biotinylated human IL-2; biotinylated IL-2; not shown: BH3 tag
Experiment: SPR (Biacore T100), biotinylated hIL-2 immobilised on an SA chip, soluble CD25 flowed over
Description: as §1, §2

T2 sequence (P60568 21-153): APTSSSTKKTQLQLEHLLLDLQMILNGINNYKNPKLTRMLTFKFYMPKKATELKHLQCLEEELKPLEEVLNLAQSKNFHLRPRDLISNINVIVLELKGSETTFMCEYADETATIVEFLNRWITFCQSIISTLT

Kd	Binder
2000 pM	B3
86 pM	B4
46 pM	B5
45 pM	B6
